This note sets out measurements from patent US20230174651A1 (Janssen / Centocor, published 2023).

Test [1] has as its target T1, human CD8α on primary CD8+ T cells (human, UniProt P01732 22-235).
T1 construct: Endogenous CD8 on T cells from PBMC; also called CD8+ primary T cells; human primary CD8+ cells
Put plainly: flow cytometry on PBMC, 2 µg/mL mAb, positive cells among EMRA CD8 T cells, Donor 2. As to the method: (§1) Frozen PBMCs were thawed and resuspended in FACS buffer (PBS+2% FBS). Cells were then incubated with Fc block for 15 min at 4 C prior to incubation with 2 μg/mL of each CD8α hinge binders at room temperature for 45 min. […] After staining, cells were washed with FACS buffer twice and resuspended in 100 μl PBS containing DAPI for acquisition. Cells were first gated on FSC/SSC, followed by live cell gating (DAPI negative cells) followed by singlet gating. CD3 T cells were identified using FSC versus CD3 dot plot. Within the CD3 T cells, CD4 and CD8 T cells were gated. Naïve, Effector, EM and CM cells were identified within the CD8 T cells using CD45RA and CD27 dot plot. Within each of the cell types, the secondary only control was used to set the gates to identify the positive stained population. The percentage of positive cells in CD8+ T cell population with binding to CD8α hinge binders were quantified and summarized in Table 13.
A general note: In flow cytometry, cells or beads pass a laser one at a time.

Test [2] deals with T2, soluble CAR extracellular domain (ECD) containing scFv and CD8α hinge (UniProt P01732 138-182, biotinylated).
T2 construct: domain: CD8α hinge; also called soluble CAR ECD; CAR ECD
Put plainly: BLI (OctetRed384), biotinylated CAR ECD on streptavidin tips; the cell stands under the head 'KD (M)' (heads shifted). As to the method: (§2) To determine the binding affinity and kinetics of mAbs to CD8α hinge, soluble CAR extracellular domains (ECD) containing scFv and CD8α hinge was generated for Bio-layer interferometry (BLI) analysis using OctetRed384 (Sartorius). The CAR ECD was biotinylated and loaded to streptavidin sensor tip. Then mAbs were associated to the sensor and followed by disassociation in the assay buffer. Data was analyzed by Octet software (Sartorius).

For test [3], the target named is T2, soluble CAR extracellular domain (ECD) …. Put plainly: BLI (OctetRed384), GC5W48-Btn (biotinylated CAR ECD) loaded on streptavidin tip, mAb in solution; second of two table rows; column head 'kdis (1/s)'. As to the method: as §2
For test [4], the target named is T1, human CD8α on primary CD8+ T cells. Nature of the test: flow cytometry on PBMC, 2 µg/mL mAb, positive cells among CD8+ T cells, Donor 2. As to the method: as §1
The target is the same in test [5]. Nature of the test: flow cytometry on PBMC, 2 µg/mL mAb, positive cells among CD8+ T cells, Donor 1. As to the method: as §1
Test [6] deals with T2, soluble CAR extracellular domain (ECD) …. Put plainly: BLI (OctetRed384), GC5W48-Btn (biotinylated CAR ECD) loaded on streptavidin tip, mAb in solution; first of two table rows. As to the method:
as §2

Test [7] has the same target. Nature of the test: BLI (OctetRed384), biotinylated CAR ECD on streptavidin tips; the cell stands under the head 'ka (1/Ms)' but the text gives 5.58 nM as the affinity (heads shifted). As to the method: as §2
For test [8] the target is unchanged. Put plainly: BLI (OctetRed384), GC5W48-Btn (biotinylated CAR ECD) loaded on streptavidin tip, mAb in solution; first of two table rows; column head 'kdis (1/s)'. How it is done: as §2
Test [9] deals with T3, CAR with CD8α hinge as the spacer, expressed on Jurkat CAR-T cells.
T3 construct: domain: CD8α hinge; also called CD8α hinge expressed on the Jurkat CAR-T cells
Put plainly: flow cytometry (iQue) on Jurkat CAR-T cells, A647 anti-human IgG Fc detection. As to the method: mAbs were 1:3 serially diluted ranging from 100 nM to 1.7 pM and were incubated with cell mixture containing Jurkat CAR-T cells (unstained), Jurkat cells (CTV dye stained) and Sup-T1 cells (CSFE dye stained) in assay media (RPMI 1640+10% HI FBS+Pen/strep) for 1 hr at 37° C. […] Cells were then washed and analyzed by iQue screener (Intellicyt®). ForeCyt software was used for data analysis. The ratio of geomean of AF647 fluorescent signal from sample over the isotype control antibody (Signal) was used for the dose-dependent plot (FIGS. 2A-2F).

The target of test [10] is T2, soluble CAR extracellular domain (ECD) …. Nature of the test: BLI (OctetRed384), biotinylated CAR ECD on streptavidin tips; the cell stands under the head 'kd (1/s)' (heads shifted). As to the method:
as §2

Test [11] concerns the target T1, human CD8α on primary CD8+ T cells. Put plainly: flow cytometry on PBMC, 2 µg/mL mAb, positive cells among EMRA CD8 T cells, Donor 1. As to the method:
as §1

Test [12] addresses T2, soluble CAR extracellular domain (ECD) …. Nature of the test: BLI (OctetRed384), GC5W48-Btn loaded on streptavidin tip; row 'average'; the sheet puts this number under 'kdis (1/s)', Table 14 of the text under 'KD (M)'. As to the method:
as §2

Test [13] has the same target. Put plainly: BLI (OctetRed384), GC5W48-Btn (biotinylated CAR ECD) loaded on streptavidin tip, mAb in solution; second of two table rows. How it is done: as §2
Test [14] deals with T1, human CD8α on primary CD8+ T cells. Put plainly: flow cytometry on PBMC, 2 µg/mL mAb, positive cells among EM CD8 T cells, Donor 1. How it is done: as §1
The target is the same in test [15]. Nature of the test: flow cytometry on PBMC, 2 µg/mL mAb, positive cells among EM CD8 T cells, Donor 2. How it is done:
as §1

Test [16] deals with T2, soluble CAR extracellular domain (ECD) …. Nature of the test: BLI (OctetRed384), GC5W48-Btn loaded on streptavidin tip; row 'average'; the sheet puts this number under 'kon (1/Ms)', Table 14 of the text under 'kd (1/s)'. As to the method:
as §2

T1 sequence (P01732 22-235): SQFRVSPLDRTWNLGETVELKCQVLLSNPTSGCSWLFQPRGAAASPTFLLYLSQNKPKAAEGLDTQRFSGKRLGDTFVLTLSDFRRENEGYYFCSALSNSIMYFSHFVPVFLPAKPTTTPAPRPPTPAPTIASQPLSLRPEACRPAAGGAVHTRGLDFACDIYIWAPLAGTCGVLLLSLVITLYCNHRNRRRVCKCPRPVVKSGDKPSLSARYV
T2 sequence (P01732 138-182): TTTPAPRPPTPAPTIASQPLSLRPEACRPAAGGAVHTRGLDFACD
T3 sequence (P01732 138-182): as above

B1: CD8B612 (antibody, human IgG1, kappa)
heavy: not shown
light: DIVMTQTPLSLPVSLGDQASISCRSSQNIVHSNGNTYLEWYLQKPGQSPKLLIYRVSKRFSGVPDRFSGSGSGTDFTLKITRVEAEDLGVYYCFQGSHVPWTFGGGTKLEIKRTVAAPSVFIFPPSDEQLKSGTASVVCLLNNFYPREAKVQWKVDNALQSGNSQESVTEQDSKDSTYSLSSTLTLSKADYEKHKVYACEVTHQGLSSPVTKSFNRGEC
notes: Mouse variable regions on human IgG1 / human kappa constant regions
As to B1, the entries for the “Binding+ in EMRA (%)” value in test [1] and in [11] were 7.67% and 67.6%, respectively. Further, the koff in [2] is 0.00135 s⁻¹; in test [3] it was 0.00156 s⁻¹; in test [8], 0.00114 s⁻¹; in test [12], 0.00135 s⁻¹. For the same molecule, the entries for the “Binding in CD8+ cells (%)” value in test [4] and in [5] were 32.9% and 71.6%, respectively. Further, the Kd in [6] is 4.81 nM; in test [7] it was 5.58 nM; in test [13], 6.35 nM. The kon in [6] came out at 237000 M⁻¹ s⁻¹; in test [10] it was 241000 M⁻¹ s⁻¹; in [13], 245000 M⁻¹ s⁻¹; in test [16] it was 241000 M⁻¹ s⁻¹. The same molecule registered an EC50 in test [9] of 2.9 nM. Further, the “Binding+ in EM (%)” value was found to be 65.1% in test [14] and 72.8% in test [15].

For orientation: koff means a measure of how fast the partners let go of each other. In general, Kd refers to the concentration at which binding is half-saturated. The kon is the rate constant with which the complex forms. As a reminder, the EC50 is the concentration giving half of the maximal effect.
